From publication PMC7205312
Each block holds one binder with its values, some of them ahead of it.

Key:
Assay in all cases: co-IP (IP anti-Myc beads, IB anti-HA), band intensity by ImageJ
Conditions in all cases: chain shown with the change; NB-ARC-HA co-expressed with NB-ARC-Myc; parent: 1.00
[1] = target: T1, Tm-2^2 NB-ARC (D481V, L233A), Q71BG9
T1 chain: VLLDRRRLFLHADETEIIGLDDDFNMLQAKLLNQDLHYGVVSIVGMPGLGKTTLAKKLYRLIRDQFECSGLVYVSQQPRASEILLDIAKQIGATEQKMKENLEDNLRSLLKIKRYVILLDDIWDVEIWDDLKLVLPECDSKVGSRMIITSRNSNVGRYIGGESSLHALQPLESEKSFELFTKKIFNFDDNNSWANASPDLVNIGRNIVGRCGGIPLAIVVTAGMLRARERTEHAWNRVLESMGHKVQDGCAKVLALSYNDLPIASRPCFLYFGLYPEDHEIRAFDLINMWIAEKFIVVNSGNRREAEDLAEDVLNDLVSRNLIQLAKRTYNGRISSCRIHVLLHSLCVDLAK

[2] = target: T2, Tm-2^2 NB-ARC (D481V, L246A), Q71BG9
T2 chain: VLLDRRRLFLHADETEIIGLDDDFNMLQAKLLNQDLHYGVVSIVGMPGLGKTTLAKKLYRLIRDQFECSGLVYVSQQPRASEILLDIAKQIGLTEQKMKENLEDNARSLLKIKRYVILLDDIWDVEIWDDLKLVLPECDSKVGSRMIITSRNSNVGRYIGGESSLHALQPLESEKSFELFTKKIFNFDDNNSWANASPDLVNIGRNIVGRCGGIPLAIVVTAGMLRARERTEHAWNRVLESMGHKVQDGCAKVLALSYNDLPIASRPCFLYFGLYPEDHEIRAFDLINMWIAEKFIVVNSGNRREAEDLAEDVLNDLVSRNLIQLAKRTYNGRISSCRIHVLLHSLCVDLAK

[3] = target: T3, Tm-2^2 NB-ARC (D481V, L242A), Q71BG9
T3 chain: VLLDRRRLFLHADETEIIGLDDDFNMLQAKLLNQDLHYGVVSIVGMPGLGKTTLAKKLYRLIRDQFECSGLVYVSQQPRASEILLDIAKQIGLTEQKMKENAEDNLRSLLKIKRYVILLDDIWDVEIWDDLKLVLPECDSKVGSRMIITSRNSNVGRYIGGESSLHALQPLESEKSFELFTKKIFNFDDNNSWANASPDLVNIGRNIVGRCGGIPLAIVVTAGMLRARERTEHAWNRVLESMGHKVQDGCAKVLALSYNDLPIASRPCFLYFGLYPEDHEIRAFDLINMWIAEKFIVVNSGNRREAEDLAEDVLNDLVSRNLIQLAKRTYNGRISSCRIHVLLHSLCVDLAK

- ratio to parent [1]: 0.64
B1: Tm-2^2 NB-ARC (D481V), Q71BG9 L233A; D481V (protein)
chain: VLLDRRRLFLHADETEIIGLDDDFNMLQAKLLNQDLHYGVVSIVGMPGLGKTTLAKKLYRLIRDQFECSGLVYVSQQPRASEILLDIAKQIGATEQKMKENLEDNLRSLLKIKRYVILLDDIWDVEIWDDLKLVLPECDSKVGSRMIITSRNSNVGRYIGGESSLHALQPLESEKSFELFTKKIFNFDDNNSWANASPDLVNIGRNIVGRCGGIPLAIVVTAGMLRARERTEHAWNRVLESMGHKVQDGCAKVLALSYNDLPIASRPCFLYFGLYPEDHEIRAFDLINMWIAEKFIVVNSGNRREAEDLAEDVLNDLVSRNLIQLAKRTYNGRISSCRIHVLLHSLCVDLAK

- ratio to parent [2]: 0.45
B2: Tm-2^2 NB-ARC (D481V), Q71BG9 L246A; D481V (protein)
chain: VLLDRRRLFLHADETEIIGLDDDFNMLQAKLLNQDLHYGVVSIVGMPGLGKTTLAKKLYRLIRDQFECSGLVYVSQQPRASEILLDIAKQIGLTEQKMKENLEDNARSLLKIKRYVILLDDIWDVEIWDDLKLVLPECDSKVGSRMIITSRNSNVGRYIGGESSLHALQPLESEKSFELFTKKIFNFDDNNSWANASPDLVNIGRNIVGRCGGIPLAIVVTAGMLRARERTEHAWNRVLESMGHKVQDGCAKVLALSYNDLPIASRPCFLYFGLYPEDHEIRAFDLINMWIAEKFIVVNSGNRREAEDLAEDVLNDLVSRNLIQLAKRTYNGRISSCRIHVLLHSLCVDLAK

- ratio to parent [3]: 0.62
B3: Tm-2^2 NB-ARC (D481V), Q71BG9 L242A; D481V (protein)
chain: VLLDRRRLFLHADETEIIGLDDDFNMLQAKLLNQDLHYGVVSIVGMPGLGKTTLAKKLYRLIRDQFECSGLVYVSQQPRASEILLDIAKQIGLTEQKMKENAEDNLRSLLKIKRYVILLDDIWDVEIWDDLKLVLPECDSKVGSRMIITSRNSNVGRYIGGESSLHALQPLESEKSFELFTKKIFNFDDNNSWANASPDLVNIGRNIVGRCGGIPLAIVVTAGMLRARERTEHAWNRVLESMGHKVQDGCAKVLALSYNDLPIASRPCFLYFGLYPEDHEIRAFDLINMWIAEKFIVVNSGNRREAEDLAEDVLNDLVSRNLIQLAKRTYNGRISSCRIHVLLHSLCVDLAK
